These results are taken from the supplement of paper PMC9732359.

This data set in a line: protein stability index of a GFP-peptide fusion (yeast GPS) (PSI 1-4); higher = more stable; sorted into four equal gates, so the index is relative within each strain. In outline:
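Plasmids isolated from each sorting gate were PCR-amplified and Illumina-sequenced, and barcodes assigned the reads to strains. The gates, four of equal size, were set by GFP/Cherry fluorescence ratio on mid-log cultures in leucine-free medium. These cultures were yeast carrying a pooled library of tiled 17-residue yeast protein peptides fused downstream of GFP on a plasmid that also expresses Cherry. The protein stability index is the sum of every gate's read frequency times its gate number.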

± gives the uncertainty stated by the source.

For the sequence LQDVIALSIADDASSAE [RPC53], the protein stability index stood at 2.47 ± 0.11 (doa10∆), 1.57 ± 0.079 (pdr5∆), 2.16 ± 0.17 (san1∆) and 2.81 ± 0.077 (ubr1∆).
Taken in the same sequence, the figures for LQEKNSGNLPLNELSAK [RPN13] were 3.19 ± 0.072, 3.2 ± 0.065, 3.08 ± 0.038 and 3.17 ± 0.063.
For LQGDLTFTKKCLENARS [SIR4], in that order: 3.23 ± 0.064, 3.11 ± 0.059, 3.05 ± 0.047 and 2.96 ± 0.041.
Consider LQHELMISIIKLVTNVV [YML103C/NUP188], for which the protein stability index worked out at 1.54 ± 0.071 (doa10∆), 1.8 ± 0.048 (pdr5∆), 1.56 ± 0.18 (san1∆) and 1.57 ± 0.038 (ubr1∆).
For LQKALTVKTNDELMVIY [RPN8], in that order: 2.33 ± 0.11, 1.89 ± 0.067, 1.84 ± 0.13 and 2.65 ± 0.061.
LQLNEAEEFVAGVSHGT [SMX3] came in with a protein stability index (doa10∆) of 3.36 ± 0.25, a protein stability index (pdr5∆) of 2.96 ± 0.23, a protein stability index (san1∆) of 3.01 ± 0.28 and a protein stability index (ubr1∆) of 3.41 ± 0.11.
For LQLTTNTEQGDSDELGG [SNM1], in that order: 3.25 ± 0.16, 3.55 ± 0.29, 3.29 ± 0.11 and 3.09 ± 0.24.
The sequence LQPFYSQPTAAGGPDMT [DSN1] showed a protein stability index (doa10∆) of 1.54 ± 0.049, a protein stability index (pdr5∆) of 1.51 ± 0.047, a protein stability index (san1∆) of 1.88 ± 0.077 and a protein stability index (ubr1∆) of 1.62 ± 0.039.
Turning to LQPIKGESARRFQKCFP [RPC40], the protein stability index (pdr5∆) worked out at 3 ± 0.25.
For the sequence LRAHTDDSRNPDCKIKI [PRE2], the protein stability index amounted to 2.86 ± 0.073 (doa10∆), 2.92 ± 0.12 (pdr5∆), 2.86 ± 0.085 (san1∆) and 2.77 ± 0.11 (ubr1∆).
Taken in the same sequence, the figures for LRASFNKLSSILQNEHD [SRB4] were 2.1 ± 0.1, 2.22 ± 0.069, 1.52 ± 0.14 and 2.49 ± 0.053.
LRDESLTVDNLSIAIVG [PRE5] showed a protein stability index (doa10∆) of 2.65 ± 0.075, a protein stability index (pdr5∆) of 2.26 ± 0.066, a protein stability index (san1∆) of 2.5 ± 0.06 and a protein stability index (ubr1∆) of 2.93 ± 0.051.
In turn, LREHFKNTEEGKALVHH [QCR6] returned a protein stability index (doa10∆) of 2.87 ± 0.11, a protein stability index (pdr5∆) of 3.23 ± 0.1, a protein stability index (san1∆) of 3.34 ± 0.057 and a protein stability index (ubr1∆) of 3.09 ± 0.099.
Turning to LRKSRETVKLPRVSNQS [RRI2], the protein stability index (pdr5∆) stood at 3.42 ± 0.22.
LRLFNAPDSEYLCFILS [SNF2] displayed a protein stability index (doa10∆) of 2.28 ± 0.044, a protein stability index (pdr5∆) of 2.17 ± 0.044, a protein stability index (san1∆) of 2.15 ± 0.042 and a protein stability index (ubr1∆) of 1.94 ± 0.031.
For LRLKLFLYEILSSLKSF [SRB8], in that order: 1.53 ± 0.063, 2.29 ± 0.082, 1.81 ± 0.082 and 2.11 ± 0.085.
Taken in the same sequence, the figures for LRLTDVTNSLSNEEKEK [GAL11] were 3.14 ± 0.12, 3.17 ± 0.12, 2.52 ± 0.15 and 3.3 ± 0.12.
As for LRNNLNSLIEEINERSE [YCG1], the protein stability index runs as follows: (doa10∆) 3.13 ± 0.094; (pdr5∆) 3.31 ± 0.095; (san1∆) 2.96 ± 0.075; (ubr1∆) 3.01 ± 0.073.
Taken in the same sequence, the figures for LRPGRIDRKVEFSLPDL [RPT1] were 3.19 ± 0.098, 3.35 ± 0.098, 3.2 ± 0.16 and 3.18 ± 0.098.
The sequence LRRGNYAQRIGSGAPVY [HTA1] had a protein stability index (doa10∆) of 2.19 ± 0.21, a protein stability index (pdr5∆) of 2.86 ± 0.17 and a protein stability index (san1∆) of 2.4 ± 0.26.
On to LRRIITDLNQDSAAIIA [GRR1], for which the protein stability index by setting is: (doa10∆) 2.64 ± 0.075; (pdr5∆) 2.31 ± 0.068; (san1∆) 2.6 ± 0.064; (ubr1∆) 2.55 ± 0.053.
For LRSIYHQFHDILEEKTD [NSL1], in that order: 2.22 ± 0.062, 2.07 ± 0.047, 2.18 ± 0.074 and 2.04 ± 0.04.
For LSAENIEERLVAIAEQD [SCL1], in that order: 3.22 ± 0.083, 3.18 ± 0.089, 3.33 ± 0.061 and 3.32 ± 0.066.
LSASWDKTLRLWDVATG [ASC1]: the protein stability index came out at 3.52 ± 0.22 (doa10∆), 3.22 ± 0.12 (pdr5∆) and 3.41 ± 0.072 (ubr1∆).
With LSEIESLDEILLPANLL [SRP68], the protein stability index was 3.14 ± 0.053 (doa10∆), 3.08 ± 0.052 (pdr5∆), 3.02 ± 0.042 (san1∆) and 3.037 ± 0.027 (ubr1∆).
For LSESDKKSKLISLYLLN [RPN12], in that order: 2.21 ± 0.17, 3 ± 0.1, 2.07 ± 0.21 and 2.31 ± 0.063.
LSFIQVRIDLGTIDKLQ [RPO31]: the protein stability index turned out to be 1.37 ± 0.056 (doa10∆), 1.71 ± 0.056 (pdr5∆), 2.06 ± 0.077 (san1∆) and 2.67 ± 0.047 (ubr1∆).
